In assay [1] the target is P79S stefin B variant (human) (UniProt P04080). The assay is described as follows: SEC; KW-803 column (Shodex), HPLC with UV detection; 15 mM sodium acetate, 150 mM NaCl, 1 mM NaN3, pH lowered to 4.7; tetramer to dimers and monomers.
The target is the same in assay [2]. The assay can be described thus: SEC; KW-803 column (Shodex), HPLC with UV detection; 50 mM sodium phosphate, 100 mM NaCl, pH 7, 1 mM NaN3. (In general: In gel filtration, larger molecules generally elute earlier.)
Assay [3] has as its target Stefin B construct (C3S, with glutamate polymorph at position 31) (human) (UniProt P04080). The assay can be described thus: NMR (2D 1H15N HSQC amide peak intensities); apparent ratio of monomer to dimer from peaks of Q71, L73 and E76; fibrillization conditions, pH 4.7 and 10% TFE, 15 mM sodium acetate, 25°C; dimer to monomers.
For assay [4] the target is unchanged. The assay is described as follows: NMR (2D 1H15N HSQC amide peak intensities); apparent ratio of monomer to dimer from peaks of Q71, L73 and E76; pH 6.0, 0% TFE; 200 uM 15N protein (monomer equivalents), 100 mM NaCl, 25°C; dimer to monomers; the paper says the two species never reach equilibrium.

As usually defined, the stoichiometry N is the number of molecules, sites or subunits per partner or assembly. Take “P79S stefin B variant (from UniProt P04080 1-98) (natural protein)”: the stoichiometry N in assay [1] was 2; in assay [2], 4.

Turning to “Stefin B construct (C3S, with glutamate polymorph at position 31) (from UniProt P04080 4-98) (natural protein)”, the ratio of monomer to dimer (monomer:dimer) worked out at 2 in assay [3] and 1 in assay [4].
